Data as given in patent publication US20030031673A1 (published 2003).

Target: T1, prostate specific membrane antigen (human, UniProt Q04609 1-750)
T1 construct: whole, on cells; also called PSMA
Experiment: Western blot, prostatic (seminal) fluid
Procedure: To confirm that antibodies E99, J415, J533, and J591 precipitate an identical band to the 7Ell antibody (i.e., PSMA), Western Blot analyses were performed. Seminal plasma (400 μg/lane) or LNCaP lysate were loaded into lanes of 12% SDS-PAGE gels. After electrophoresis, the gels are transferred to nitrocellulose membranes. The membranes were blocked with 5% dry milk/Tris-buffered saline-tween 20 (“TBST”) for 60 min at room temperature. After washing, the membranes were incubated with primary mAb for 60 min at room temperature. After repeat washing, the membranes were incubated with sheep anti-mouse-Ig-peroxidase 1/5000 in 5% dry milk/TEST for 60 min at room temperature. After repeat washing, the membranes were developed using a chemiluminescent tag designated “ECL” (Amersham Life Sciences, International, Arlington Heights, Ill.) according to the manufacturer's directions.

T1 sequence (Q04609 whole entry): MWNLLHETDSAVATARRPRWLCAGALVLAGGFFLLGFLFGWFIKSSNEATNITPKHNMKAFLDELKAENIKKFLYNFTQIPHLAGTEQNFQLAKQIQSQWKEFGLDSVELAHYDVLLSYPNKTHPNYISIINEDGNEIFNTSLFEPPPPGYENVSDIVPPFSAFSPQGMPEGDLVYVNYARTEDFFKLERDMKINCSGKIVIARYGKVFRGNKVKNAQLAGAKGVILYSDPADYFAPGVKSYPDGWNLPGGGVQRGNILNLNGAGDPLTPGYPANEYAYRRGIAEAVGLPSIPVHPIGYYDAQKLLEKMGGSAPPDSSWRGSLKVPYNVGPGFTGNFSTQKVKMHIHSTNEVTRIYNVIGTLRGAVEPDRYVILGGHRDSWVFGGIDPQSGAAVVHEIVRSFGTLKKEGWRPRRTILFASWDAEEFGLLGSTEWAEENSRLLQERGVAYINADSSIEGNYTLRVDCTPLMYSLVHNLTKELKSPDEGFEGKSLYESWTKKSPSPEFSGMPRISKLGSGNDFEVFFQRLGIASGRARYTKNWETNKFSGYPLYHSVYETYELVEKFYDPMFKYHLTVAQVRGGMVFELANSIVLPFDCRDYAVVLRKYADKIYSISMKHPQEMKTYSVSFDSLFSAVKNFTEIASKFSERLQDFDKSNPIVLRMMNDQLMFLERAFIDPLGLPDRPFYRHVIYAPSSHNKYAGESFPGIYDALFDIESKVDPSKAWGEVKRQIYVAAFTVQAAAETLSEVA

binding result: binds
B1: monoclonal antibody J591 (antibody, V domains shown)
VH: EVQLQQSGPELVKPGTSVRISCKTSGYTFTEYTIHWVKQSHGKSLEWIGNINPNNGGTTYNQKFEDKATLTVDKSSSTAYMELRSLTSEDSAVYYCAAGWNFDYWGQGTTLTVSS
VL: DIVMTQSHKFMSTSVGDRVSIICKASQDVGTAVDWYQQKPGQSPKLLIYWASTRHTGVPDRFTGSGSGTDFTLTITNVQSEDLADYFCQQYNSYPLTFGAGTMLDLK
notes: Gold-labeled in the electron microscopy; also called mAb J591; hybridoma ATCC HB-12126
